From patent publication US20220324964A1 (GENERAL HOSPITAL, published 2022)

T1: soluble TACI protein, fluorescently labeled (UniProt O14836 1-165, limits assumed, fluorescent label (not specified))
T1 construct: Labeled soluble protein used to stain CAR T cells in flow cytometry; also called sTACI; fluorescent TACI
T1 sequence (looked up): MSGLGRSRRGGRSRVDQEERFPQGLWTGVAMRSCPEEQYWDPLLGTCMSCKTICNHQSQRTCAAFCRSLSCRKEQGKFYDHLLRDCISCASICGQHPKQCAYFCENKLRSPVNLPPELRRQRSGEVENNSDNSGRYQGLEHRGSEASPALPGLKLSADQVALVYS

T2: soluble BCMA, labeled (UniProt Q02223 1-54, fluorescent label (not specified))
T2 construct: Labeled soluble protein used to stain CAR T cells in flow cytometry; also called sBCMA; fluorescent BCMA
T2 sequence (looked up): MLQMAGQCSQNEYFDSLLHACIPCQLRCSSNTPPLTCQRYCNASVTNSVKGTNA

T3: his-tagged recombinant TACI (UniProt O14836 1-165, limits assumed)
T3 construct: Analyte in the SPR assay; also called TNFRSF13B; not shown: his tag
T3 sequence (looked up): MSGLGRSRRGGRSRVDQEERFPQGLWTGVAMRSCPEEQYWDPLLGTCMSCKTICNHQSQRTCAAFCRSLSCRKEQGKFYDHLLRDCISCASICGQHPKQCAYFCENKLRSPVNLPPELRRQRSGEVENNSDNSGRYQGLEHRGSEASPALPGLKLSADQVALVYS


Key:
[1] = biological target: T1, soluble TACI protein, fluorescently …; test: flow cytometry, fluorescent soluble TACI titrated 0.01 to 1000 nM on CAR T cells, percentage TACI+, N=3
Method: (§1) FIGS. 25A-25B show measurements of binding of soluble TACI protein to untransduced T cells, and to T cells expressing anti-TACI H-L, anti-TACI L-H, or anti-BCMA. Cells were incubated with fluorescent soluble TACI protein at various concentrations, after which fluorescence of the cells was measured using flow cytometry, represented as percentage of cells positive for TACI (FIG. 25A) or as median fluorescence intensity (MFI) relative to signal measured in untransduced cells (FIG. 25B).
(§2) To evaluate the expression, binding efficacy, and binding specificity of anti-TACI CARs, normal donor T cells were transduced with anti-TACI H-L, anti-TACI L-H, or anti-BCMA and transduction efficiency was evaluated by measuring the percentage of each T cell population positive for mCherry expression by flow cytometry. […] To compare binding efficiency and specificity of different CARs, T cells expressing each CAR construct were incubated with fluorescently-labeled soluble TACI and analyzed by flow cytometry.

soluble BCMA, labeled = biological target: T2, soluble BCMA, labeled; test: flow cytometry, labeled soluble BCMA (8 to 1000 ng) on CAR T cells, gated on live CAR T cells
Method: The anti-BCMA, anti-TACI (H/L), and anti-TACI (L/H) CAR T cells were evaluated for their capabilities to bind to soluble TACI (sTACI), soluble BCMA (sBCMA), and soluble APRIL (sAPRIL) was determined. T cells were washed 4 times in PBS 4% BSA, and incubated with labeled protein on ice at 4° C. for 40 min. After incubation, cells were washed twice with FACS buffer and flow cytometry was performed gating on live, CAR T cells to calculate protein binding. As evident in FIG. 12A, anti-TACI (L/H) CAR T cells have higher binding efficiency to soluble TACI than anti-TACI (H/L) CAR T cells.

[2] = biological target: T1, soluble TACI protein, fluorescently …; test: flow cytometry, fluorescent soluble TACI titrated 0.01 to 1000 nM on CAR T cells, MFI relative to untransduced cells, N=3
Method: as §1, §2

[3] = biological target: T1, soluble TACI protein, fluorescently …; test: flow cytometry, fluorescent soluble TACI titrated 0.01 to 1000 nM on CAR T cells, percentage TACI+ (panel Soluble binding of TACI), N=3
From the text: (§3) The top two plots show binding of fluorescent BCMA and the bottom two plots show binding of fluorescent TACI to anti-TACI H-L CAR, anti-TACI L-H CAR, anti-BCMA, anti-TACI/anti-BCMA bispecific CAR, anti-BCMA/anti-TACI bispecific CAR, or untransduced T cells. The two left plots show the percentage of cells positive for BCMA or TACI. The two right plots show median fluorescence intensity for each cell population relative to untransduced cells.
(§4) To test the efficacy of bispecific CAR T cells to bind their respective antigens, T cells were either left untransduced, or transduced with anti-TACI H-L CAR, anti-TACI L-H CAR, anti-BCMA CAR, anti-TACI/anti-BCMA bispecific CAR, or anti-BCMA/anti-TACI bispecific CAR, and were tested for their binding of soluble antigens.

[4] = biological target: T1, soluble TACI protein, fluorescently …; test: flow cytometry, fluorescent soluble TACI titrated 0.01 to 1000 nM on CAR T cells, MFI relative to untransduced cells (panel Amount of soluble TACI binding), N=3
From the text: as §3, §4

[5] = biological target: T3, his-tagged recombinant TACI; test: SPR; antibody captured on anti-mouse IgG chip, his-tagged recombinant TACI as analyte
Method: The antibodies were analyzed by surface plasmon resonance according to the following procedure (FIG. 2). The binding of his-tagged recombinant TACI to anti-TACI antibody was captured to 120 RU (for TACI) on anti-mouse IgG.

Binder | EC50 (read off the curve) [1] | binding result (soluble BCMA, labeled) | EC50 (read off the curve) [2] | EC50 (read off the curve) [3] | EC50 (read off the curve) [4] | Kd [5] | koff [5] | kon [5]
Anti-TACI (H/L) CAR expressed on T cells (other, Chimeric antigen receptor: anti-TACI scFv VH-(G4S)4-VL, CD8 hinge/TM, 4-1BB, CD3zeta; The vector also expresses mCherry; also called Anti-TACI CAR (H-L)) EVQLQQSGPELVKPGASVKISCKTSGYTFTESTIHWVKQSHGKSLEWIGGISPNNGGSPFNQKFKGKATLTVDKSSSTVYMELRSLSSEDSAVYYCAKWVRGAMDFWGQGTSVTVSSGGGGSGGGGSGGGGSGGGGSDIVLTQSPASLAVSLGQRATISCRASESVDYYGMSLMNWFQQKPGQPPKLVIYAASNQGSGVPARFSGSGSGTDFRLNIHPLEEDDTGMYFCQQSKEAPPTFGGGTKLEIKTTTPAPRPPTPAPTIASQPLSLRPEACRPAAGGAVHTRGLDFACDIYIWAPLAGTCGVLLLSLVITLYCKRGRKKLLYIFKQPFMRPVQTTQEEDGCSCRFPEEEEGGCELRVKFSRSADAPAYQQGQNQLYNELNLGRREEYDVLDKRRGRDPEMGGKPRRKNPQEGLYNELQKDKMAEAYSEIGMKGERRRGKGHDGLYQGLSTATKDTYDALHMQALPPR | ~2 nM | no binding (tested: 1000 ng) | ~8 nM | ~2 nM | ~8 nM | – | – | –
anti-TACI antibody (monoclonal antibody from hybridoma, Example 1) (antibody, V domains shown, also called anti-TACI mAb) VH: EVQLQQSGPELVKPGASVKISCKTSGYTFTESTIHWVKQSHGKSLEWIGGISPNNGGSPFNQKFKGKATLTVDKSSSTVYMELRSLSSEDSAVYYCAKWVRGAMDFWGQGTSVTVSS VL: not shown | – | – | – | – | – | 0.861 nM | 0.00121 s⁻¹ | 1.41e+06 M⁻¹ s⁻¹
